Measurements taken from patent publication US20070196860.

Target: SEQ ID NO. 25, Ac-…dPSxG-NH2

B1: Akt3 (protein)
chain: SDVTIVKEGWVQKRGEYIKNWRPRYFLLKTDGSFIGYKEKPQDVDLPYPLNNFSVAKCQLMKTERPKPNTFIIRCLQWTTVIERTFHVDTPEEREEWTEAIQAVADRLQRQEEERMNCSPTSQIDNIGEEEMDASTTHHKRKTMNDFDYLKLLGKGTFGKVILVREKASGKYYAMKILKKEVIIAKDEVAHTLTESRVLKNTRHPFLTSLKYSFQTKDRLCFVMEYVNGGELFFHLSRERVFSEDRTRFYGAEIVSALDYLHSGKIVYRDLKLENLMLDKDGHIKITDFGLCKEGITDAATMKTFCGTPEYLAPEVLEDNDYGRAVDWWGLGVVMYEMMCGRLPFYNQDHEKLFELILMEDIKFPRTLSSDAKSLLSGLLIKDPNKRLGGGPDDAKEIMRHSFFSGVNWQDVYDKKLVPPFKPQVTSETDTRYFDEEFTAQTITITPPEKYDDDGMDGMDNERRPHFPQFSYSASGRE
B1 was tested, and the “reaction rate, PDGF-treated NIH3T3 lysate” value was “The PDGF-treated sample showed a reaction rate of 1.24 RFU/sec” and the “reaction rate, control treated NIH3T3 lysate” value was “the control treated sample had a markedly reduced rate of 0.28 RFU/sec”.

B2: Akt1 (protein)
chain: MNDVAIVKEGWLHKRGEYIKTWRPRYFLLKNDGTFIGYKERPQDVDQRESPLNNFSVAQCQLMKTERPRPNTFIIRCLQWTTVIERTFHVETPEEREEWATAIQTVADGLKRQEEETMDFRSGSPSDNSGAEEMEVSLAKPKHRVTMNEFEYLKLLGKGTFGKVILVKEKATGRYYAMKILKKEVIVAKDEVAHTLTENRVLQNSRHPFLTALKYSFQTHDRLCFVMEYANGGELFFHLSRERVFSEDRARFYGAEIVSALDYLHSEKNVVYRDLKLENLMLDKDGHIKITDFGLCKEGIKDGATMKTFCGTPEYLAPEVLEDNDYGRAVDWWGLGVVMYEMMCGRLPFYNQDHEKLFELILMEEIRFPRTLGPEAKSLLSGLLKKDPTQRLGGGSEDAKEIMQHRFFANIVWQDVYEKKLSPPFKPQVTSETDTRYFDEEFTAQMITITPPDQDDSMECVDSERRPHFPQFSYSASGTA
For B2, the “reaction rate, PDGF-treated NIH3T3 lysate” value was “The PDGF-treated sample showed a reaction rate of 1.13 RFU/sec” and the “reaction rate, control treated NIH3T3 lysate” value was “the control treated sample had a markedly reduced rate of 0.12 RFU/sec”.
